Experimental findings from IntAct's records for PubMed 10887173 are described below.

To fix the notation:
B1: 14-3-3 protein zeta/delta (Homo sapiens), P63104 (parent)
chain: MDKNELVQKAKLAEQAERYDDMAACMKSVTEQGAELSNEERNLLSVAYKNVVGARRSSWRVVSSIEQKTEGAEKKQQMAREYREKIETELRDICNDVLSLLEKFLIPNASQAESKVFYLKMKGDYYRYLAEVAAGDDKKGIVDQSQQAYQEAFEISKKEMQPTHPIRLGLALNFSVFYYEILNSPEKACSLAKTAFDEAIAELDTLSEESYKDSTLIMQLLRDNLTLWTSDTQGDEAEAGEGGEN

The variants in this assay derive from B1. The conditions noted are these: with vime_chlae VIM.
Consider E5K;L12Q;A13Q;E14R;Y82Q;K85N;E87Q, for which the “effect of a mutation on the interaction” value is listed as “decreasing interaction”.
